The values that follow come from patent US20230322924A1 (Janssen / Centocor, published 2023).

Changes are numbered by the printed parent chain. Numbers in names are those of the source. Where two headings read alike, the source gives them in different places.

The target of one assay is T1, Human CD33 ECD-HSA (human).
T1 construct: CD33 ECD fused at the C-terminus to monomeric HSA (C58S) and a six-histidine tag; also called C33W2; huCD33 ECD-HSA
Kind of assay: SPRi off-rate screen (IBIS MX96).

A further assay addresses T2, Human CD33-C2-HSA (human).
T2 construct: C2 domain of human CD33 fused to HSA; also called C33W4; huCD33-C2-HSA
The assay can be described thus: SPRi off-rate screen (IBIS MX96).

Assay [1] concerns the target T3, cynomolgus monkey PSMA on HEK cells (cynomolgus).
T3 construct: whole, on cells; also called Cyno-PSMA HEK; PSMG5
Kind of assay: flow cytometry, mammalian Fab supernatant on cyno-PSMA HEK cells (PSMG5), anti-human kappa-RPE. From the text: (§1) (Mammalian Fab Supernatant Titration Curves for Anti-PSMA Phage Panning Hits vs Cyno PSMA HEK). […] In FIG. 24D, Mammalian-expressed supernatants were normalized for Fab expression via octet, and titrated against either human LNCAP, PSMG5 (Cyno-PSMA HEK), or PSMG9 (chimp-PSMA HEK) cells using flow cytometry. Geometric mean fluorescence intensity (GeoMFI) was plotted vs. Fab concertation using GraphPad Prizm.
(§2) A cell-based binding assay was designed to assess the binding capabilities of individual Fab-his fusions from E. coli supernatants to PSMA-expressing cells. Individual Fab clones were isolated from the round 3 output of all panning experiments following pIX excision. Fab clones were tested for binding to chimp and cyno PSMA expressing HEK cells, as well as to human PSMA on LNCaP cells. Briefly, PSMA expressing cells were aliquoted into a V-bottom plate (CoStar 3357) at a density of 200,000 per well and incubated with (100 μl) supernatants expressing Fab fragments for 1 hour on ice. […] Plates were read on a BD FACS Array flow cytometer. FACS data was analyzed in FlowJo software by live gating the healthy population of cells using forward scatter and side scatter, and then analyzing the cells within this gate for PE staining. Mean fluorescence intensity (MFI) was calculated and exported into Microsoft Excel. […]
On the technique in general: In flow cytometry, cells or beads pass a laser one at a time.

Assay [2] has as its target T3, cynomolgus monkey PSMA on HEK cells. The assay is described as above.
Text: as §1, §2
This is another data set of the same source.

The target in a further assay is T4, Rh-integrin a4b7 (UniProt P13612 34-977; P26010 20-723, limits assumed).
T4 construct: rh read as recombinant human
Kind of assay: Biacore 8K SPR, antibody over immobilised protein. The protocol:
(§3) Non-specific binding of the lead molecule to unrelated surfaces is determined by biosensor technology (Biacore 8K). Antibody is passed over SPR surfaces coated with unrelated proteins. […] Irrelevant surfaces include negatively charged protein (Soy Trypsin Inhibitor), positively charged protein (Lysozyme and β-defensin), hydrophobic (Rh-integrin a4b7), human IgG, sticky protein (Rh-CD19). Proper controls are used in this experiment. Lead is flown over two surfaces, one is a blank and the other has a molecule directly immobilized. The response unit (RU) level is determined by subtracting the blank RU from the test surface RU. […] A response unit ≥100 predicts high risks for non-specific binding to charged/hydrophobic/IgG surfaces which would create challenges during manufacturing and translate to poor PK properties.

The next assay addresses T5, Rh-CD19 (UniProt P15391 20-291, limits assumed).
T5 construct: rh read as recombinant human
T5 sequence (looked up): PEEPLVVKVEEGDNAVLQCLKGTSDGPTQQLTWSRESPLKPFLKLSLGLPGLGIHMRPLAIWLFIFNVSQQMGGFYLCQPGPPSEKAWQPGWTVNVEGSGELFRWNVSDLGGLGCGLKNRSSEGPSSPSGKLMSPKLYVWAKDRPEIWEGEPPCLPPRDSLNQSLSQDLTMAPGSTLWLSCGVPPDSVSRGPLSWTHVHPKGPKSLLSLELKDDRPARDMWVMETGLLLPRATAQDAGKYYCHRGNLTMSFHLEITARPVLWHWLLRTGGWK
Kind of assay: Biacore 8K SPR, antibody over immobilised protein. The protocol: as §3

Assay [3] concerns the target T6, human CD3 on human T cells (human, UniProt P07766 23-207).
T6 construct: Native TCR-CD3 complex on cells; also called primary human T cells; human pan T cells
Kind of assay: competition with AF488 SP-34 tracer on human pan T cells, flow cytometry. The protocol: (§4) The mixture was added to the T cells for 2 hours at 4° C. Cells were then washed to remove un-bound antibody, fixed for 15 minutes, washed, and re-suspended in FACS Staining buffer containing 1 mM EDTA.
(§5) The iQue Intellicyte Flow Cytometer was used to measure binding. Cells were gated for T-cell population, followed by cell singlets, followed by Live Cells (FL4). Geometric mean of staining (FL1) was determined for each well. The acquired mean fluorescence intensity values were plotted as a function of the log antibody molecule concentration (converted to nM) and analyzed using Prism software in a sigmoidal dose-response (variable slope) from which the EC50/IC50 values (in nM) are derived. The binding affinity (Kd) was derived using the following formula: Kd=IC50/(1+([T]/KdT)).

Assay [4] addresses T6, human CD3 on human T cells. Kind of assay: Kd = IC50/(1+[T]/KdT) from competition with AF488 SP-34 on human pan T cells. The procedure:
as §4, §5

Assay [5] concerns the target T7, human PSMA on cells (LNCaP) (human, UniProt Q04609 1-750).
T7 construct: whole, on cells; also called LNCaP cells
Kind of assay: flow cytometry, mammalian Fab supernatant on LNCaP cells, anti-human kappa-RPE. The procedure: (§6) Individual Fab clones were isolated from the round 3 output of all panning experiments following pIX excision. Fab clones were tested for binding to chimp and cyno PSMA expressing HEK cells, as well as to human PSMA on LNCaP cells. Briefly, PSMA expressing cells were aliquoted into a V-bottom plate (CoStar 3357) at a density of 200,000 per well and incubated with (100 μl) supernatants expressing Fab fragments for 1 hour on ice. Cells were washed twice with PBS containing 2% FBS, and stained with a mouse anti-human kappa-RPE antibody (Life Technologies cat #MH10514) for 1 hour on ice. Cells were washed twice with PBS containing 2% FBS and resuspended in […] of the same wash buffer. Plates were read on a BD FACS Array flow cytometer. FACS data was analyzed in FlowJo software by live gating the healthy population of cells using forward scatter and side scatter, and then analyzing the cells within this gate for PE staining. Mean fluorescence intensity (MFI) was calculated and exported into Microsoft Excel. […] Fabs were sequenced and moved forward for cloning into mammalian expression vector for rescreening. True positives were selected from the binding of mammalian cell expressed Fab supernatants to PSMA-expressing cell lines.
FIGS. 22A, 22B, 22C and 22D show the titration curves for anti-PSMA panning hits vs. LNCaP cells. […] Binding profiles among hits were compared across cell lines expressing different species of PSMA.

Assay [6] has as its target T8, chimpanzee PSMA on HEK cells (chimpanzee, UniProt H2Q3K5 1-750).
T8 construct: also called chimp-PSMA HEK; PSMG9
The assay can be described thus: flow cytometry, mammalian Fab supernatant on chimp-PSMA HEK cells (PSMG9), anti-human kappa-RPE. The protocol: as §6
(§7) FIGS. 22A, 22B, 22C and 22D show the titration curves for anti-PSMA panning hits vs. LNCaP cells. […]

The target in assay [7] is T8, chimpanzee PSMA on HEK cells. The assay is described as above. The procedure: as §6, §7
This is another data set of the same source.

As a reminder, the koff is the first-order rate constant of dissociation. Broadly, the EC50 (read off the curve) is the concentration at which the effect is half-maximal. A word on the IC50: it is the concentration at which inhibition is half-maximal. As a reminder, the Kd is the equilibrium constant for the complex coming apart.

T6 sequence (P07766 23-207 limits assumed): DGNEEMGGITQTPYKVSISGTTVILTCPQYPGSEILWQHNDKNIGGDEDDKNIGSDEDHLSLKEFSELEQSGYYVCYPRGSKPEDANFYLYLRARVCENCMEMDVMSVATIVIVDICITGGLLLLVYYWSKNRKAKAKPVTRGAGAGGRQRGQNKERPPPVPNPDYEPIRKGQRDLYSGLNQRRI
T8 sequence (H2Q3K5 entry or part of it limits assumed): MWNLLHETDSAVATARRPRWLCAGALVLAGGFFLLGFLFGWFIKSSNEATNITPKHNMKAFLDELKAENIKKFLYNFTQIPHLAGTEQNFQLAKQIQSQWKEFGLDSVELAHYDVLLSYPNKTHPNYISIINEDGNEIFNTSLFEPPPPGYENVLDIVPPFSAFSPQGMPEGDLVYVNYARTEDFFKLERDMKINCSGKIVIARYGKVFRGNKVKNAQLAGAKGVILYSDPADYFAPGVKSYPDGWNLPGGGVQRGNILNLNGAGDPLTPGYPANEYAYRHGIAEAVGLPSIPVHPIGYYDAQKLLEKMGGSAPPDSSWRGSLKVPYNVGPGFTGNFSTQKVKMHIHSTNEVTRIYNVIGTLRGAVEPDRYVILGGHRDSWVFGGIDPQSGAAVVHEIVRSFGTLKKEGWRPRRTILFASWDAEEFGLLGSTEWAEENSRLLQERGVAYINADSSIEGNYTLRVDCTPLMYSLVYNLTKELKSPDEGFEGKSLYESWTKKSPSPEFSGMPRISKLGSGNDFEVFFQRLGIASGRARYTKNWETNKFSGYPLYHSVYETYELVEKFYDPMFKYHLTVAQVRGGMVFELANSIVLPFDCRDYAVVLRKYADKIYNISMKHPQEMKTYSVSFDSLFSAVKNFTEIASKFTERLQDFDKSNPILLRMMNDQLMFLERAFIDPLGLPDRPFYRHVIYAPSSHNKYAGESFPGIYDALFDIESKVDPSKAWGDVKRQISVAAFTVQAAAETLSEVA
T7 sequence (Q04609 whole entry): as the sequence (H2Q3K5 entry or part of it limits assumed) above, with L155S, H281R, Y475H, N613S, T647S, L660V, D727E, S733Y counted along it

B1: C33B778 (antibody, IgG4, V domains shown)
VH: QVQLVESGGGVVQPGRSLRLSCVASGFTFSSYGMHWVRQAPGKGLEWVAVISYDGSNKYYADSVKGRFTISRDNSKNTLYLQMNSLRAEGTAVYYCAKDFRSFDWLPPDSASYHGMDVWGQGTTVTVSS
VL: SYELTQPPSVSVSPGQTASITCSGDKLGDKYACWYQQKPGQSPVLVIYQDGKRPSGIPERFSGSNFGNKATLTISGTQAMDEADYYCQAWDRNTVVFGGGTKLTVL
notes: also called C33H66/C33L60; C33F78
As to B1, the koff with Human CD33 ECD-HSA is 4.72e-05 s⁻¹; in the assay with Human CD33-C2-HSA, 0.00257 s⁻¹.

B2: PSMM85 (Fab, V domains shown)
VH: EVQLLESGGGLVQPGGSLRLSCAASGFTFDSDWMSWVRQAPGKGLEWVSAISGNGGSTEYADSVKGRFTISRDNSKNTLYLQMNSLRAEDTAVYYCARDPYYYYDGDSYYGMDVWGQGTLVTVSS
VL: not shown
notes: Mammalian Fab supernatant; also called PSMB84
On to B2, for which, in assay [1], the “EC50 (read off the curve)” value was roughly 0.4 µg/mL.

B3: PSMM59 (Fab, V domains shown)
VH: EVQLVQSGAEVKKPGESLKISCKGSGYSFTSYWISWVRQMPGKGLEWMGIIYPGDSYTRYSPSFQGQVTISADKSISTAYLQWSSLKASDTAMYYCARDYEWELFDSRLDYWGQGTLVTVSS
VL: not shown
notes: Mammalian Fab supernatant; also called PSMB58
Consider B3, for which the concentration for a half-maximal effect (EC50 (read off the curve)) in assay [2] was roughly 0.2 µg/mL.

B4: CD3B376 (antibody, human IgG4 S228P, lambda, F234A L235A, V domains shown)
VH: QVQLQQSGPRLVRPSQTLSLTCAISGDSVFNNNAAWSWIRQSPSRGLEWLGRTYYRSKWLYDYAVSVKSRITVNPDTSRNQFTLQLNSVTPEDTALYYCARGYSSSFDYWGQGTLVTVSS
VL: QSALTQPASVSGSPGQSITISCTGTSSNIGTYKFVSWYQQHPDKAPKVLLYEVSKRPSGVSSRFSGSKSGNTASLTISGLQAEDQADYHCVSYAGSGTLLFGGGTKLTVLG
notes: IgG4 PAA (S228P, F234A, L235A); LC is CD3L124 with C91V; also called CD3H219/CD3L150; bivalent CD3B376
On to B4, for which the binding result in the assay with Rh-integrin a4b7 and in the assay with Rh-CD19 was “no binding (tested: response unit ≥100 predicts high risks)” throughout. Further, in assay [3], the IC50 is 29 nM. Also, in [4], the Kd was 7.3 nM.

B5: CD3B450 (antibody, human IgG4 S228P, lambda, F234A L235A, V domains shown)
VH: B4 VH with R10G, R13K, V73I, R79K, T83S, L96V
VL: B4 VL with D43G, L49M, L50I, S62N, Q85E, H89Y
notes: IgG4 PAA; also called CD3H231/CD3L197; bivalent CD3B450
B5: the IC50 in assay [3] was found to be 60 nM. In [4], this molecule had a Kd of 15 nM.

B6: PSMM52 (Fab, V domains shown)
VH: QVQLVQSGAEVKKPGSSVKVSCKASGGTFSSYAISWVRQAPGQGLEWMGWIIPYNGNANYAQKFQGRVTITADESTSTAYMELSSLRSEDTAVYYCARVNSAALVWERLDYWGQGTLVTVSS
VL: DIQMTQSPSSLSASVGDRVTITCRASQSIDRWLNWYQQKPGKAPKLLIYAASSLQSGVPSRFSGSGSGTDFTLTISSLQPEDFATYYCQQSPRYPLTFGQGTKVEIK
notes: Mammalian Fab supernatant; also called PSMB51
As to B6, the “EC50 (read off the curve)” value in [5] was roughly 0.3 µg/mL; in assay [2], roughly 0.2 µg/mL; in assay [1] it was roughly 0.2 µg/mL; in [6], roughly 0.2 µg/mL; in assay [7] it was roughly 0.2 µg/mL.
